Reference: PMC12639820, “Antifactor H Autoantibody Characterization in Atypical Hemolytic Uremic Syndrome” (Kidney International Reports, 2025)

Molecular target: T1, purified human C3b (human, UniProt P01024 23-667; P01024 749-1663)
T1 construct: C3b is the two-chain cleavage product of C3; source: purified human C3b
Test: ELISA; C3b (5 ug/ml) or C3d (5 ug/ml) coated on wells; purified biotinylated human FH (6 ug/ml) preincubated in solution with different amounts of total IgG from patient serum (kAb) or NHS
Settings: both partners purified

T1 sequence (P01024 23-667, chain 1 of 2): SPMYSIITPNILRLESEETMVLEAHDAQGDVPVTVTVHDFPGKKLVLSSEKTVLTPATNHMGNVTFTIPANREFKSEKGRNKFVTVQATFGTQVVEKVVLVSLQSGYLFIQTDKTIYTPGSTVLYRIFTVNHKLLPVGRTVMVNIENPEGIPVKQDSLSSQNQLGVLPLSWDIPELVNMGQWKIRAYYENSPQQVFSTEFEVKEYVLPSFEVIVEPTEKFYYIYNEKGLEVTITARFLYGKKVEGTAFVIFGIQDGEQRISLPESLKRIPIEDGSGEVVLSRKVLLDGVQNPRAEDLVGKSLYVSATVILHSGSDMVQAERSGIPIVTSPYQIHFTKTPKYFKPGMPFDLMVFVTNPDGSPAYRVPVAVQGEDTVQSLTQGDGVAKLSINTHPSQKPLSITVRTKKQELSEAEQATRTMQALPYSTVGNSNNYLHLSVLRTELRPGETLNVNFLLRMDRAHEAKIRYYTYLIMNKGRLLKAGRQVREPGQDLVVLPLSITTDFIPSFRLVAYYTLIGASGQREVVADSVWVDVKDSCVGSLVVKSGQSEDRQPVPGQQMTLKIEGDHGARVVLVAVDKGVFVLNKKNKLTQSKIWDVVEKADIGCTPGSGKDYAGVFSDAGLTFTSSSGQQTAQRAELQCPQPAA
T1 sequence (P01024 749-1663, chain 2 of 2): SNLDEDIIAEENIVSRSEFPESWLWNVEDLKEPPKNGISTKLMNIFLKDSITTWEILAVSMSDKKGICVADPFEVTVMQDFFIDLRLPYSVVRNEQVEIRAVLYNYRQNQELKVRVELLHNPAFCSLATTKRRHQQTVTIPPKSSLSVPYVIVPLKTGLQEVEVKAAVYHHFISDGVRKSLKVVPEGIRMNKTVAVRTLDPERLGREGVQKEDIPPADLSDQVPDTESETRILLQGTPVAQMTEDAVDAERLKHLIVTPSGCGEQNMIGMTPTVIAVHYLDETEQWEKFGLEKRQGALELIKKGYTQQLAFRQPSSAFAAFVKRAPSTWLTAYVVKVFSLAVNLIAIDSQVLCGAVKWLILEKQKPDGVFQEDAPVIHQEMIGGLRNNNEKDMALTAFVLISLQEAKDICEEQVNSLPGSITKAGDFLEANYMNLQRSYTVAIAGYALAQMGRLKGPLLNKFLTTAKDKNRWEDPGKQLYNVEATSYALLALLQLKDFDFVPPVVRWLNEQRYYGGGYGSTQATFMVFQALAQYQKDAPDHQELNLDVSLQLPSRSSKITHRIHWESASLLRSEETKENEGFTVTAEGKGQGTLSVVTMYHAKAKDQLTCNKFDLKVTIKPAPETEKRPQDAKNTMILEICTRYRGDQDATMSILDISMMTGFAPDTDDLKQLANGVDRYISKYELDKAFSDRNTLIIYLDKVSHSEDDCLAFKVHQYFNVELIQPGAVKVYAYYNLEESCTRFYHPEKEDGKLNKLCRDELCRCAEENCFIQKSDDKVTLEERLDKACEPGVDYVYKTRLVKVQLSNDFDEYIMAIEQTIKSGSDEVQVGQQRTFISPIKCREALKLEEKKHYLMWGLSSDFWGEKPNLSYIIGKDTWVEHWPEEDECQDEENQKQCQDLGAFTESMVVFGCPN

binding result: binds
B1: purified biotinylated human factor H (natural protein, UniProt P08603 19-1231, looked up)
chain: EDCNELPPRRNTEILTGSWSDQTYPEGTQAIYKCRPGYRSLGNVIMVCRKGEWVALNPLRKCQKRPCGHPGDTPFGTFTLTGGNVFEYGVKAVYTCNEGYQLLGEINYRECDTDGWTNDIPICEVVKCLPVTAPENGKIVSSAMEPDREYHFGQAVRFVCNSGYKIEGDEEMHCSDDGFWSKEKPKCVEISCKSPDVINGSPISQKIIYKENERFQYKCNMGYEYSERGDAVCTESGWRPLPSCEEKSCDNPYIPNGDYSPLRIKHRTGDEITYQCRNGFYPATRGNTAKCTSTGWIPAPRCTLKPCDYPDIKHGGLYHENMRRPYFPVAVGKYYSYYCDEHFETPSGSYWDHIHCTQDGWSPAVPCLRKCYFPYLENGYNQNYGRKFVQGKSIDVACHPGYALPKAQTTVTCMENGWSPTPRCIRVKTCSKSSIDIENGFISESQYTYALKEKAKYQCKLGYVTADGETSGSITCGKDGWSAQPTCIKSCDIPVFMNARTKNDFTWFKLNDTLDYECHDGYESNTGSTTGSIVCGYNGWSDLPICYERECELPKIDVHLVPDRKKDQYKVGEVLKFSCKPGFTIVGPNSVQCYHFGLSPDLPICKEQVQSCGPPPELLNGNVKEKTKEEYGHSEVVEYYCNPRFLMKGPNKIQCVDGEWTTLPVCIVEESTCGDIPELEHGWAQLSSPPYYYGDSVEFNCSESFTMIGHRSITCIHGVWTQLPQCVAIDKLKKCKSSNLIILEEHLKNKKEFDHNSNIRYRCRGKEGWIHTVCINGRWDPEVNCSMAQIQLCPPPPQIPNSHNMTTTLNYRDGEKVSVLCQENYLIQEGEEITCKDGRWQSIPLCVEKIPCSQPPQIEHGTINSSRSSQESYAHGTKLSYTCEGGFRISEENETTCYMGKWSSPPQCEGLPCKSPPEISHGVVAHMSDSYQYGEEVTYKCFEGFGIDGPAIAKCLGEKWSHPPSCIKTDCLSLPSFENAIPMGEKKDVYKAGEQVTYTCATYYKMDGASNVTCINSRWTGRPTCRDTSCVNPPTVQNAYIVSRQMSKYPSGERVRYQCRSPYEMFGDEEVMCLNGNWTEPPQCKDSTGKCGPPPPIDNGDITSFPLSVYAPASSVEYQCQNLYQLEGNKRITCRNGQWSEPPKCLHPCVISREIMENYNIALRWTAKQKLYSRTGESVEFVCKRGYRLSSRSHTLRTTCWDGKLEYPTCAKR
modifications: biotin (biotinylated; sites not stated)
notes: complement factor H, human, 155 kDa serum protein of 20 CCP domains; purified human protein; also called FH; source: purified human FH, biotinylated
